Patent US11220526B2, “Neuropeptide S receptor (NPSR) agonists” (Research Triangle Institute, priority 2016, dated 2022)
Square brackets hold non-standard residues; d marks the D form. Peptide text beside a SMILES is read from it. * marks the point of attachment. Phe(4-Cl) = N[C@@H](Cc1ccc(Cl)cc1)C(=O)O; Lys(Me2) = CN(C)CCCC[C@H](N)C(=O)O; Bz = O=C(c1ccccc1)*

Columns and labels:
C57BL/6 mice = assay: Locomotor activity (horizontal, vertical, stereotypic) after i.c.v. injection; type: in vivo
Description: Male C57BL/6 mice (National Cancer Institute, Bethesda, Md., or Charles River Laboratories, Wilmington, Mass.), age 8-12 weeks, were group-housed (4 animals per cage) under controlled conditions (temperature 21 f 2° C.; relative humidity 50-60%; 12-hour light-dark cycle, lights on 6:00 AM) with free access to food and water. For intracerebroventricular (i.c.v.) drug injections, mice were briefly anesthetized with isofluorane. NPS was dissolved in phosphate-buffered saline (PBS, pH 7.4) containing 0.1% bovine serum albumin and injected i.c.v. (total volume: 2 μl) as described before (Xu et al., 2004). NPSR antagonist compounds were dissolved in PBS containing 10% Cremophor EL (Sigma) and 100 μl were injected intraperitoneally (i.p.).
Locomotion of mice was monitored in an automated activity system equipped with infrared sensors for both horizontal and vertical activity measurements (Versamax, Accuscan Inc., Columbus, Ohio). Male C57BL/6 mice were allowed to habituate to the recording chamber for 1 h. Vehicle or NPSR antagonist compound (in PBS, 10% cremophor EL) were injected i.p. 10 minutes before central administration of either NPS (1 nmole in 2 μl PBS, 0.1% BSA) or vehicle (PBS, 0.1% BSA). […] Horizontal activity represents infrared beam breaks in the X and Y dimension, while vertical activity was recorded by infrared sensors located 8 cm above the chamber floor (Z dimension). […]

[1] = NPS administration; cited from earlier work
NPSR-C-Alt = target: T1, NPSR-C-Alt (Homo sapiens, UniProt Q6W5P4); settings: functional assay; cited from earlier work
T1 sequence (Q6W5P4 1-377 isoform Q6W5P4-4): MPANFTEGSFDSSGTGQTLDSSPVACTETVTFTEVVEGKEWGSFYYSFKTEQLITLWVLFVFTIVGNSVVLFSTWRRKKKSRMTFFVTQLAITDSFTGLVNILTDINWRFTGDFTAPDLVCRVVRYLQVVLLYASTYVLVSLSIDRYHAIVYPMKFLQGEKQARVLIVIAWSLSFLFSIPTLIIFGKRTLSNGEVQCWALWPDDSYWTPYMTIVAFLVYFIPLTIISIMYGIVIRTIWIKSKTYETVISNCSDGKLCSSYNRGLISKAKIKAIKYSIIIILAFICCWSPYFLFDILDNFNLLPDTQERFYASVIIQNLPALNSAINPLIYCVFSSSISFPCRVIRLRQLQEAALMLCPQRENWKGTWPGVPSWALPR

NPSR = target: T2, NPSR (Homo sapiens, UniProt Q6W5P4); settings: Bernier et al. 2006; cited from earlier work
T2 sequence (Q6W5P4 1-371): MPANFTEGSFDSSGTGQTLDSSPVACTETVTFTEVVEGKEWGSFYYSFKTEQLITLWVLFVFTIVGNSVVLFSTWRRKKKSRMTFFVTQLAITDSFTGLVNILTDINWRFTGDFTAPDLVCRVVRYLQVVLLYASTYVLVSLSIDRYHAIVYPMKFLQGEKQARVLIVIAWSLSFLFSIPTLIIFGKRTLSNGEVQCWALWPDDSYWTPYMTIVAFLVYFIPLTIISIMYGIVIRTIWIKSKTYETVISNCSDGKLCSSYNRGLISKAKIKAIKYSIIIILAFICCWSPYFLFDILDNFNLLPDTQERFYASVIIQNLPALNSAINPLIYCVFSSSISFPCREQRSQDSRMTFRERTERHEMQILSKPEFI

Row | Molecule | effect of truncation on NPSR activation (NPSR) | other results
1 | CN(C)CCCC[C@H](NC(=O)[C@H](Cc1ccc(Cl)cc1)NC(=O)c1ccccc1)C(=O)N[C@@H](CC(N)=O)C(N)=O [Example R06039-398] (Bz-[Phe(4-Cl)]-[Lys(Me2)]-Asn-NH2) | – | cumulative activities (horizontal, vertical, stereotypic) measured (C57BL/6 mice; icv administration, male C57BL/6 mice, 90 minutes recording): increasing with dose
2 | O=C(NCCN1CCCCC1)N1CCN2C(=O)OC(c3ccccc3)(c3ccccc3)C2C1 (centres unmarked) [RTI-11817-163] | – | effect on R06039-398 mediated increases in horizontal and vertical activity (C57BL/6 mice; antagonist added to icv R06039-398, mice): reverses
3 | SFRNGVGTGMKKTSFQRAKS [hNPS, 20 residue peptide, endogenous ligand of the neuropeptide S receptor] | – | performance in novel recognitions assays [1]: dose-dependently improved performance; potency at NPSR-C-Alt versus the 107I variant (NPSR-C-Alt): 30 fold lower
4 | peptide 1-6: NPS with the C-terminal 14 residues removed (SFRNGV; Neuropeptide S; UniProt P0C0P6 70-75, looked up, fragment) | limited effect on the potency | –
5 | peptide 2-20: NPS with Ser-1 removed (FRNGVGTGMKKTSFQRAKS; Neuropeptide S; UniProt P0C0P6 71-89, looked up, fragment) | detrimental to function | –
6 | peptide 3-20: NPS with the first two NH2-terminal residues removed (RNGVGTGMKKTSFQRAKS; Neuropeptide S; UniProt P0C0P6 72-89, looked up, fragment) | largely inactive | –
7 | peptide 4-20: NPS with the first three NH2-terminal residues removed (NGVGTGMKKTSFQRAKS; Neuropeptide S; UniProt P0C0P6 73-89, looked up, fragment) | largely inactive | –
